Assay results: patent US20220177576A1 (DENALI THERAPEUTICS, published 2022)

T1: human TREM2 expressed on HEK293-H6 cells (human, UniProt Q9NZC2 19-230)
T1 construct: Wild type human TREM2 stably co-expressed with DAP12 in HEK 293 cells (clone HEK293-H6); also called Human TREM2 HEK; TREM2 expressed by HEK293-H6 cells
T1 sequence: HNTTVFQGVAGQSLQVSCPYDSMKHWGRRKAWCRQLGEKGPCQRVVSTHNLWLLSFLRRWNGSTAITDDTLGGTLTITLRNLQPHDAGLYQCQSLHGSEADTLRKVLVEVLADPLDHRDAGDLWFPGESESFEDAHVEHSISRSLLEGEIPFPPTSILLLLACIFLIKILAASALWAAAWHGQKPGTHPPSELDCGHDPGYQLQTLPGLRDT

T2: recombinant human TREM2 ECD (human, UniProt Q9NZC2 19-172)
T2 construct: TREM2' / 'TREM2 ECD'; also called hTREM2; Human TREM2 (Biacore)
T2 sequence: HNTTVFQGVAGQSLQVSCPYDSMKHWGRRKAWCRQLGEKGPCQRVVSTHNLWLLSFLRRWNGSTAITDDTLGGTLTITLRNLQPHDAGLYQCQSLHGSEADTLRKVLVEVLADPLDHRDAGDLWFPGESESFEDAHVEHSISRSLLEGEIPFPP

T3: recombinant cynomolgus TREM2 ECD (cynomolgus, UniProt A0A2K5UY34 49-204)
T3 construct: extracellular domain; also called Cyno TREM2
T3 sequence: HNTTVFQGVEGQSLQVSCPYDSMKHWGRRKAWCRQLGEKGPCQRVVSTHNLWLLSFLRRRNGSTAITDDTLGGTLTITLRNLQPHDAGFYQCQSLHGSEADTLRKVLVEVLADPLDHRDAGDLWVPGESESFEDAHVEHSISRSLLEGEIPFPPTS


Legend:
[1] = target: T1, human TREM2 expressed on HEK293-H6 cells; test: flow cytometry on human TREM2-expressing HEK cells
Experimental: After incubation, the cells were centrifuged and washed in FACS buffer (PBS+0.5% BSA) twice. Mixed cells were resuspended in FACS buffer with human Trustain FcX solution (Biolegend, Catalog No. 422302) at a density of 10⁶/mL per cell line. The mixed cell lines were seeded at 200,000 cells per well in a 96-well round-bottom plate and incubated for 20 minutes at room temperature. After incubation, the cells were centrifuged and incubated with a dose titration of anti-TREM2 antibodies for 45 minutes on ice. After incubation, the cells were centrifuged and washed with FACS buffer three times. The cells were then incubated with secondary antibody (Alexa Fluor 647 AffiniPure F(ab′)2 Fragment Goat Anti-human IgG(H+L), Jackson ImmunoResearch Laboratories, Catalog No. 109-606-088, 1:800 dilution) for 30 minutes on ice. After incubation, the cells were washed with FACS buffer three times, resuspended in 100 μL of FACS buffer, and analyzed by flow cytometry (BD FACSCanto II, San Jose, Calif.), for which 30,000 events were obtained for each sample. Mean fluorescence intensity per cells were calculated by FlowJo software and used for generating dose response binding curve.

[2] = target: T2, recombinant human TREM2 ECD; test: SPR (Biacore), antibody captured by anti-human Fab, TREM2 ECD as analyte
Experimental: (§1) Surface plasmon resonance (Biacore™ 8K instrument) was used to measure anti-TREM2 antibody affinities for human and cynomolgus TREM2 ECD. Anti-TREM2 antibodies were captured using Human Fab Capture Kit (GE Healthcare Life Sciences, Catalog No. 28958325) on a Biacore Series S CM5 sensor chip (GE Healthcare Life Sciences, Catalog No. 29149604). Serial 3-fold dilutions of recombinant human or cynomolgus TREM2 were injected at a flow rate of 30 μL/min. Antibody binding was monitored for 300 seconds, followed by monitoring of antibody dissociation for 600+ seconds in HBS-EP+ running buffer (GE Healthcare Life Sciences, Catalog No. BR100669). The binding response was corrected by subtracting the RU value from a blank flow cell. A 1:1 Languir model of simultaneous fitting of kₒₙ and koff was used for kinetics analysis. KD binding values were calculated from kₒₙ and koff.

[3] = target: T3, recombinant cynomolgus TREM2 ECD; test: SPR (Biacore), antibody captured by anti-human Fab, cyno TREM2 ECD as analyte
Experimental: as §1

[4] = target: T4, human transferrin receptor (human, UniProt P02786 89-760, limits assumed); test: SPR (Biacore), antibody captured by anti-human Fab on CM5 chip, human TfR as analyte, 1:1 model
T4 construct: also called Human TfR; TfR
T4 sequence (P02786 89-760 limits assumed): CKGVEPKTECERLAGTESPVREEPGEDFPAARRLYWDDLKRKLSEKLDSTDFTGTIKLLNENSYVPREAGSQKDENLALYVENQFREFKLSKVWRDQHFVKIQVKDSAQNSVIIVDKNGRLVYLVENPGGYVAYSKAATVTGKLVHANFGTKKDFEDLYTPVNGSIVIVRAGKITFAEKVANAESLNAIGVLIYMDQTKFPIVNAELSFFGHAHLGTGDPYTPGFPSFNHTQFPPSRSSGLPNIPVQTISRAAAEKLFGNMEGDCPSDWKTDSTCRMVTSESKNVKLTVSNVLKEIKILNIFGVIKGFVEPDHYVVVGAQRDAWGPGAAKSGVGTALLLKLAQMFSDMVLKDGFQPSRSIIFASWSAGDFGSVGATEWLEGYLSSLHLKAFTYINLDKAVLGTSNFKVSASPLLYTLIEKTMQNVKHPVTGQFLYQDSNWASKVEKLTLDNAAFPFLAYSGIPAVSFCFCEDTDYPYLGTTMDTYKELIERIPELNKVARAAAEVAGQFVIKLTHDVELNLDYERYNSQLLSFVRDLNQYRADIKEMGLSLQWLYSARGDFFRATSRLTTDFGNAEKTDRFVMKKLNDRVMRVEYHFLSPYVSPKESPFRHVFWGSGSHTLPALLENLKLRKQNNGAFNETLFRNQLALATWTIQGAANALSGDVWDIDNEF
Experimental: Binding of anti-TREM2 protein to human transferrin receptor was determined as follows: anti-human-Fab was immobilized on a CM5 chip, and the anti-TREM2 protein was captured. Full-length human TfR or human TfR apical domain at serial dilution (e.g., concentrations of 1-1,000 nM) was flowed over the chip (180 second association time) and then allowed to dissociate. Fitting was performed using a 1:1 binding model.

| EC50 [1] [nM] | Kd [2] [nM] | Kd [3] [nM] | Kd [4] [nM] | Binder |
| --- | --- | --- | --- | --- |
| 3.6 | 5.7 | 2.4 | 620 | ATV:TREM2 #5 (antibody, human IgG1, kappa, L234A L235A, Knob/hole heterodimeric IgG1; the second carries hole, LALA and LS; also called anti-TREM2/CH35.23.4) heavy 1: EVQLVESGGGLVQPGGSLRLSCAASGFTFTDFYMSWVRQAPGKGLEWVSVIRNKANAYTAGYNPSVKGRFTISRDNSKNTLYLQMNSLRAEDTAVYYCARLTYGFDYWGQGTLVTVSSASTKGPSVFPLAPSSKSTSGGTAALGCLVKDYFPEPVTVSWNSGALTSGVHTFPAVLQSSGLYSLSSVVTVPSSSLGTQTYICNVNHKPSNTKVDKKVEPKSCDKTHTCPPCPAPEAAGGPSVFLFPPKPKDTLMISRTPEVTCVVVDVSHEDPEVKFNWYVDGVEVHNAKTKPREEQYNSTYRVVSVLTVLHQDWLNGKEYKCKVSNKALPAPIEKTISKAKGQPREPQVYTLPPSRDELTKNQVSLWCLVKGFYPSDIAVEWESYGTEWSNYKTTPPVLDSDGSFFLYSKLTVSKEEWQQGFVFSCSVLHEALHSHYTQKSLSLSPGK heavy 2: EVQLVESGGGLVQPGGSLRLSCAASGFTFTDFYMSWVRQAPGKGLEWVSVIRNKANAYTAGYNPSVKGRFTISRDNSKNTLYLQMNSLRAEDTAVYYCARLTYGFDYWGQGTLVTVSSASTKGPSVFPLAPSSKSTSGGTAALGCLVKDYFPEPVTVSWNSGALTSGVHTFPAVLQSSGLYSLSSVVTVPSSSLGTQTYICNVNHKPSNTKVDKKVEPKSCDKTHTCPPCPAPEAAGGPSVFLFPPKPKDTLMISRTPEVTCVVVDVSHEDPEVKFNWYVDGVEVHNAKTKPREEQYNSTYRVVSVLTVLHQDWLNGKEYKCKVSNKALPAPIEKTISKAKGQPREPQVYTLPPSRDELTKNQVSLSCAVKGFYPSDIAVEWESNGQPENNYKTTPPVLDSDGSFFLVSKLTVDKSRWQQGNVFSCSVLHEALHSHYTQKSLSLSPGK light: DIVMTQTPLSLPVTPGEPASISCQSSKSLLHSTGKTYLNWYLQKPGQSPQLLIYWMSTRASGVPDRFSGSGSGTDFTLKISRVEAEDVGVYYCQQFLEYPFTFGQGTKVEIKRTVAAPSVFIFPPSDEQLKSGTASVVCLLNNFYPREAKVQWKVDNALQSGNSQESVTEQDSKDSTYSLSSTLTLSKADYEKHKVYACEVTHQGLSSPVTKSFNRGEC |
| 4.9 | 5.4 | 2.4 | 650 | ATV:TREM2 #2 (antibody, human IgG1, kappa, L234A L235A, Knob/hole heterodimeric IgG1; the second carries hole, LALA and LS; also called anti-TREM2/CH35.23.1.1) heavy 1: EVQLVESGGGLVQPGGSLRLSCAASGFTFTDFYMSWVRQAPGKGLEWVSVIRNKANAYTAGYNPSVKGRFTISRDNSKNTLYLQMNSLRAEDTAVYYCARLTYGFDYWGQGTLVTVSSASTKGPSVFPLAPSSKSTSGGTAALGCLVKDYFPEPVTVSWNSGALTSGVHTFPAVLQSSGLYSLSSVVTVPSSSLGTQTYICNVNHKPSNTKVDKKVEPKSCDKTHTCPPCPAPEAAGGPSVFLFPPKPKDTLMISRTPEVTCVVVDVSHEDPEVKFNWYVDGVEVHNAKTKPREEQYNSTYRVVSVLTVLHQDWLNGKEYKCKVSNKALPAPIEKTISKAKGQPREPQVYTLPPSRDELTKNQVSLWCLVKGFYPSDIAVEWESFGTEWSNYKTTPPVLDSDGSFFLYSKLTVSKEEWQQGFVFSCSVLHEALHSHYTQKSLSLSPGK heavy 2: EVQLVESGGGLVQPGGSLRLSCAASGFTFTDFYMSWVRQAPGKGLEWVSVIRNKANAYTAGYNPSVKGRFTISRDNSKNTLYLQMNSLRAEDTAVYYCARLTYGFDYWGQGTLVTVSSASTKGPSVFPLAPSSKSTSGGTAALGCLVKDYFPEPVTVSWNSGALTSGVHTFPAVLQSSGLYSLSSVVTVPSSSLGTQTYICNVNHKPSNTKVDKKVEPKSCDKTHTCPPCPAPEAAGGPSVFLFPPKPKDTLMISRTPEVTCVVVDVSHEDPEVKFNWYVDGVEVHNAKTKPREEQYNSTYRVVSVLTVLHQDWLNGKEYKCKVSNKALPAPIEKTISKAKGQPREPQVYTLPPSRDELTKNQVSLSCAVKGFYPSDIAVEWESNGQPENNYKTTPPVLDSDGSFFLVSKLTVDKSRWQQGNVFSCSVLHEALHSHYTQKSLSLSPGK light: DIVMTQTPLSLPVTPGEPASISCQSSKSLLHSTGKTYLNWYLQKPGQSPQLLIYWMSTRASGVPDRFSGSGSGTDFTLKISRVEAEDVGVYYCQQFLEYPFTFGQGTKVEIKRTVAAPSVFIFPPSDEQLKSGTASVVCLLNNFYPREAKVQWKVDNALQSGNSQESVTEQDSKDSTYSLSSTLTLSKADYEKHKVYACEVTHQGLSSPVTKSFNRGEC |
| 4.6 | 3 | 2.2 | 1400 | ATV:TREM2 #3 (antibody, human IgG1, kappa, L234A L235A, Knob/hole heterodimeric IgG1; the second carries hole, LALA and LS; also called anti-TREM2/CH35.23.3) heavy 1: EVQLVESGGGLVQPGGSLRLSCAASGFTFTDFYMSWVRQAPGKGLEWVSVIRNKANAYTAGYNPSVKGRFTISRDNSKNTLYLQMNSLRAEDTAVYYCARLTYGFDYWGQGTLVTVSSASTKGPSVFPLAPSSKSTSGGTAALGCLVKDYFPEPVTVSWNSGALTSGVHTFPAVLQSSGLYSLSSVVTVPSSSLGTQTYICNVNHKPSNTKVDKKVEPKSCDKTHTCPPCPAPEAAGGPSVFLFPPKPKDTLMISRTPEVTCVVVDVSHEDPEVKFNWYVDGVEVHNAKTKPREEQYNSTYRVVSVLTVLHQDWLNGKEYKCKVSNKALPAPIEKTISKAKGQPREPQVYTLPPSRDELTKNQVSLWCLVKGFYPSDIAVEWESYGTEWVNYKTTPPVLDSDGSFFLYSKLTVTKEEWQQGFVFSCSVLHEALHSHYTQKSLSLSPGK heavy 2: EVQLVESGGGLVQPGGSLRLSCAASGFTFTDFYMSWVRQAPGKGLEWVSVIRNKANAYTAGYNPSVKGRFTISRDNSKNTLYLQMNSLRAEDTAVYYCARLTYGFDYWGQGTLVTVSSASTKGPSVFPLAPSSKSTSGGTAALGCLVKDYFPEPVTVSWNSGALTSGVHTFPAVLQSSGLYSLSSVVTVPSSSLGTQTYICNVNHKPSNTKVDKKVEPKSCDKTHTCPPCPAPEAAGGPSVFLFPPKPKDTLMISRTPEVTCVVVDVSHEDPEVKFNWYVDGVEVHNAKTKPREEQYNSTYRVVSVLTVLHQDWLNGKEYKCKVSNKALPAPIEKTISKAKGQPREPQVYTLPPSRDELTKNQVSLSCAVKGFYPSDIAVEWESNGQPENNYKTTPPVLDSDGSFFLVSKLTVDKSRWQQGNVFSCSVLHEALHSHYTQKSLSLSPGK light: DIVMTQTPLSLPVTPGEPASISCQSSKSLLHSTGKTYLNWYLQKPGQSPQLLIYWMSTRASGVPDRFSGSGSGTDFTLKISRVEAEDVGVYYCQQFLEYPFTFGQGTKVEIKRTVAAPSVFIFPPSDEQLKSGTASVVCLLNNFYPREAKVQWKVDNALQSGNSQESVTEQDSKDSTYSLSSTLTLSKADYEKHKVYACEVTHQGLSSPVTKSFNRGEC |
| – | 2 | 2.2 | – | ATV:TREM2 #4 (antibody, human IgG1, kappa, L234A L235A, Knob/hole heterodimeric IgG1; the second carries hole and LS only, without LALA; also called CH3C.35.23.3 cisLALA) heavy 1: EVQLVESGGGLVQPGGSLRLSCAASGFTFTDFYMSWVRQAPGKGLEWVSVIRNKANAYTAGYNPSVKGRFTISRDNSKNTLYLQMNSLRAEDTAVYYCARLTYGFDYWGQGTLVTVSSASTKGPSVFPLAPSSKSTSGGTAALGCLVKDYFPEPVTVSWNSGALTSGVHTFPAVLQSSGLYSLSSVVTVPSSSLGTQTYICNVNHKPSNTKVDKKVEPKSCDKTHTCPPCPAPEAAGGPSVFLFPPKPKDTLMISRTPEVTCVVVDVSHEDPEVKFNWYVDGVEVHNAKTKPREEQYNSTYRVVSVLTVLHQDWLNGKEYKCKVSNKALPAPIEKTISKAKGQPREPQVYTLPPSRDELTKNQVSLWCLVKGFYPSDIAVEWESYGTEWVNYKTTPPVLDSDGSFFLYSKLTVTKEEWQQGFVFSCSVLHEALHSHYTQKSLSLSPGK heavy 2: not shown light: DIVMTQTPLSLPVTPGEPASISCQSSKSLLHSTGKTYLNWYLQKPGQSPQLLIYWMSTRASGVPDRFSGSGSGTDFTLKISRVEAEDVGVYYCQQFLEYPFTFGQGTKVEIKRTVAAPSVFIFPPSDEQLKSGTASVVCLLNNFYPREAKVQWKVDNALQSGNSQESVTEQDSKDSTYSLSSTLTLSKADYEKHKVYACEVTHQGLSSPVTKSFNRGEC |
